Here are results for 3 molecules from patent publication US20190040127A1 (University of California, published 2019).

The term Kd denotes the equilibrium constant for the complex coming apart.

The target in experiment [1] is T1, Epithelial Membrane Protein 2 (EMP2) (human, UniProt P54851 1-167).
T1 construct: Endogenous EMP2 on SUM149 or MDA-MB-468 breast cancer cells
T1 sequence: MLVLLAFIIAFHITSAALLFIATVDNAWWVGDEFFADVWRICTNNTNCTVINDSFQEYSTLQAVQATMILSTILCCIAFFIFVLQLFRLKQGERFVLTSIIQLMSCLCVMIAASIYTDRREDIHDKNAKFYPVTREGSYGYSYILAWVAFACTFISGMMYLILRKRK
Put plainly: flow cytometry on SUM149 cells, nonlinear regression (FIG. 4). The procedure:
(§1) A comparison of anti-EMP2 Variant 1 and PG-101 binding affinity for EMP2 was carried out. […] PG-101 and Variant 1 binding to EMP2 was determined using SUM149 and flow cytometry. Variant 1 retains binding to EMP2 with improved affinity. Flow cytometry was used to determine the ability of both antibodies to bind to EMP2 on SUM149 cells.
On the technique in general: Flow cytometry measures light scatter and fluorescence of single cells or particles in a stream.

Experiment [2] has as its target T1, Epithelial Membrane Protein 2 (EMP2). Nature of the experiment: flow cytometry on MDA-MB-468 cells (FIG. 2).
For experiment [3] the target is unchanged. Put plainly: flow cytometry on SUM149 cells (FIG. 4). The procedure:
as §1

Substitutions are numbered along the chain they refer to. Some results are limits rather than exact numbers.

B1: PG-101 Parental (antibody, human IgG1, kappa, V domains shown)
VH: QVQLVQSGGGVVQPGRSLRLSCAASGFTFSSYAMHWVRQAPGKGLEWVAVISYDGSNKYYADSVKGRFTISRDNSKNTLYLQMNSLRAEDTAVYYCARDRRGRKSAGIDYWGQGTLVTVSS
VL: DIQMTQSPSSLSASVGDRVTITCQASQDISNYLNWYQQKPGKAPKLLIYAASSLQSGVPSRFSGSGSGTDFTLTISSLQPEDFATYYCLQDYNGWTFGQGTKVDIKR
notes: Full IgG1/kappa made in HEK293 cells; also called parental antibody
Molecule B1 displayed an equilibrium dissociation constant (Kd) in experiment [1] of 2.6 µg/mL.

B2: PG-101 Variant 2 (antibody, human IgG1, kappa, V domains shown)
VH: B1 VH
VL: B1 VL with G94L
notes: Full IgG1/kappa made in HEK293 cells
With B2, in experiment [2], the binding result was “binds”.

B3: PG-101 Variant 1 (antibody, human IgG1, kappa, V domains shown)
VH: B1 VH
VL: B1 VL with N93S
notes: Full IgG1/kappa made in HEK293 cells; also called anti-EMP2 Variant 1; PG-201
In the case of B3, the “fold increase in binding against the parental antibody PG-101” value in experiment [3] was more than 2 fold.
